Measurements from publication PMC3784471 (PLoS Pathogens, 2013).
Ends that are not written are not given here.

Molecular target: T1, Hendra virus nucleoprotein C-terminal domain N_(TAIL) (residues 401-532) (Hendra virus, UniProt O89339 401-532)
T1 sequence: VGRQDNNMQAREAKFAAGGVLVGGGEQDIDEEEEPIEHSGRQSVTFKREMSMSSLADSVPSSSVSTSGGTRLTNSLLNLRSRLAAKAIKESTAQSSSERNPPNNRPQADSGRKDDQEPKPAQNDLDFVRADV
Assay: NMR titration; […]) ([…]); 298 K; […], pH 6.0
Conditions: both partners purified

B1: Hendra virus phosphoprotein X domain (XD, residues 654-707), 13C,15N labeled, without hexahistidine tag (domain or fragment)
chain: ADDASKDVVRTMIRTHIKDRELRSELMDYLNRAETDEEVQEVANTVNDIIDGNI
modifications: also: 13C,15N labeled
B1: binds.
